These results are taken from publication PMC12170345 (Nature Structural & Molecular Biology, 2025).

In data set [1] the target is T1, CCDC66 (full length, GFP- or mCherry-tagged) (human, UniProt A2RUB6 1-948).
T1 construct: CCDC66, human, full-length protein; source: HEK293T, transiently transfected; purified (StrepTactin beads) for in vitro assays; in lysate for coimmunoprecipitation; not shown: GFP or mCherry, N-terminal, kept
T1 sequence (looked up): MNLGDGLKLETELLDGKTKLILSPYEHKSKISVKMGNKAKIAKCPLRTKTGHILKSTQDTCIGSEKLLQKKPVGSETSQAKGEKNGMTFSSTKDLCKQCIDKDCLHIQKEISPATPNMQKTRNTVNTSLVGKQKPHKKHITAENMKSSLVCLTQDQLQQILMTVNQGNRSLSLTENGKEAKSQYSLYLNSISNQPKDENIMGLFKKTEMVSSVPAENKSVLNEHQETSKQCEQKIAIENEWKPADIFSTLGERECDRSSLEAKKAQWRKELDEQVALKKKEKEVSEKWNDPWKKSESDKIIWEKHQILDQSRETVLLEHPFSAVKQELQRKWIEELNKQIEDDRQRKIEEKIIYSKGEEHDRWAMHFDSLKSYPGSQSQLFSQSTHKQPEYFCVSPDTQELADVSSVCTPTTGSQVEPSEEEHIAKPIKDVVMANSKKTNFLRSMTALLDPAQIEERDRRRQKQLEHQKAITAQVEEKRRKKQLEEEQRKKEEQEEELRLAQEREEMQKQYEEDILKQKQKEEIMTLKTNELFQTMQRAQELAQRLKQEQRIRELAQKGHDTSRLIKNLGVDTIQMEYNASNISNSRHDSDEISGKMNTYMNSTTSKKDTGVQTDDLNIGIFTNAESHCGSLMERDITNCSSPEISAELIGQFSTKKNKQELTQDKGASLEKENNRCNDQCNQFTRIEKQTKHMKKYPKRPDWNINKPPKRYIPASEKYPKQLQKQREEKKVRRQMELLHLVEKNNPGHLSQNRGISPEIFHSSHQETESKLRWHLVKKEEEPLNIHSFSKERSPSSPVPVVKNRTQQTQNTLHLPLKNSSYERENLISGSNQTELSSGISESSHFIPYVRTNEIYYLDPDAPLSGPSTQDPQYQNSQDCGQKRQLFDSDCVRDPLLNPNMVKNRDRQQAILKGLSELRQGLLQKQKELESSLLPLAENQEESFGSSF
Nature of the data set: in vitro reconstitution on dynamic microtubules (TIRF microscopy); recruitment of one fluorescent protein to MTs by another that is on the MTs; 15 µM tubulin, with or without 20 nM EB3; MRB80, 50 mM KCl, 1 mM GTP, 30 °C. As to conditions: both partners purified.

Data set [2] deals with the molecule itself. Nature of the data set: single-molecule fluorescence intensity counting (TIRF microscopy); GFP-tagged protein diluted in PBS and immobilised on a plasma-cleaned coverslip; intensities compared with single GFP and GFP–EB3 dimers in adjacent chambers.
Data set [3] addresses TOGARAM1 (mouse, full length, GFP- or mCherry-tagged) (mouse, UniProt Q6A070 1-1776). Nature of the data set: cell-based or functional assay.

Sequence of TOGARAM1 (mouse, full length, GFP- or mCherry-tagged) (Q6A070 whole entry): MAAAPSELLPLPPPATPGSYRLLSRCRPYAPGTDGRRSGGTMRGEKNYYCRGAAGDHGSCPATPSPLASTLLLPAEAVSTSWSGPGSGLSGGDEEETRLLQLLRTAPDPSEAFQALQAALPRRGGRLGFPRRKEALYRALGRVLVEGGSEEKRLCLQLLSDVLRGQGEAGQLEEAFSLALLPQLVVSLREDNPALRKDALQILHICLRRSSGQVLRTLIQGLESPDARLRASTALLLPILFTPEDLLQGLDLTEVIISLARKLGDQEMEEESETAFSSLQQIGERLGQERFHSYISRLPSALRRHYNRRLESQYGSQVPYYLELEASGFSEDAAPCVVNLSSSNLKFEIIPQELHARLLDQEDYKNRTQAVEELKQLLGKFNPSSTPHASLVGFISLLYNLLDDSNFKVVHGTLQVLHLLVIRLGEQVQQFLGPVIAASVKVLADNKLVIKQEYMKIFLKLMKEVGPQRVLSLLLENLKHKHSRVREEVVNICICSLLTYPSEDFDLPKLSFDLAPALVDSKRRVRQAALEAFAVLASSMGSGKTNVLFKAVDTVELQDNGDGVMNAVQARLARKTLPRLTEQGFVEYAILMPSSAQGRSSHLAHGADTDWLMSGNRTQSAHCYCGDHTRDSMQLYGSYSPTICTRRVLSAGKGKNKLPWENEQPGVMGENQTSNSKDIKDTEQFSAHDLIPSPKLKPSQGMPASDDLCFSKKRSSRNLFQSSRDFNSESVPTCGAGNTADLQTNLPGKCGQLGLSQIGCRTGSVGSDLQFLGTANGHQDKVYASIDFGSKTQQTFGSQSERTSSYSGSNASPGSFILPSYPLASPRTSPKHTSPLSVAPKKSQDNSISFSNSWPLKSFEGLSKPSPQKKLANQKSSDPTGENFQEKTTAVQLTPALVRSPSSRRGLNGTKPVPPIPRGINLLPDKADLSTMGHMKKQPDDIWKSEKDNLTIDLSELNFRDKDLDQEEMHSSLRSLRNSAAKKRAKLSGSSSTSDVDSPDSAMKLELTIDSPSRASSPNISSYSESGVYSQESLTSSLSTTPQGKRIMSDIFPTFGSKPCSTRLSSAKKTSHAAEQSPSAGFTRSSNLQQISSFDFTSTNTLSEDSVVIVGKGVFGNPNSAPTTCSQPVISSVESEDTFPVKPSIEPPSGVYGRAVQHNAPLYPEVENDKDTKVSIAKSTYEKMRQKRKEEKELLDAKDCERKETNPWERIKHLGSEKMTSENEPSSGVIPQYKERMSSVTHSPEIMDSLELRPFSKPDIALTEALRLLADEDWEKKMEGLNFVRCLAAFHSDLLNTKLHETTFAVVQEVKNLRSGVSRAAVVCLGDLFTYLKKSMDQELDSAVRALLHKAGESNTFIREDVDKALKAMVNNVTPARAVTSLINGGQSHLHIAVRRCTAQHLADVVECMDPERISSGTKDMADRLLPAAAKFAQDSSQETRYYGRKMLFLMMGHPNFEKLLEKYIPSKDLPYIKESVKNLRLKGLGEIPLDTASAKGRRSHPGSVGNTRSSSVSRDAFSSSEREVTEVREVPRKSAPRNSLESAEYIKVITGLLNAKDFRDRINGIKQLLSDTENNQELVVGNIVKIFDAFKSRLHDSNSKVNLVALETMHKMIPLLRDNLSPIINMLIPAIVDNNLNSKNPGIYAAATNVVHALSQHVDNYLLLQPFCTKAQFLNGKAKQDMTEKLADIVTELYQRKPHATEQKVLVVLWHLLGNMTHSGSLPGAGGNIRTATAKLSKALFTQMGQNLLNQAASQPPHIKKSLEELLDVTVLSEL

B1: CEP104 (full length, GFP- or mCherry-tagged) (natural protein, human, UniProt O60308 1-925, looked up)
chain: MPHKIGFVVVSSSGHEDGFSARELMIHAPTVSGWRSPRFCQFPQEIVLQMVERCRIRKLQLLAHQYMISSKIEFYISESLPEYFAPYQAERFRRLGYVSLCDNEKTGCKARELKSVYVDAVGQFLKLIFHQNHVNKYNIYNQVALVAINIIGDPADFSDESNTASREKLIDHYLGHNSEDPALEGTYARKSDYISPLDDLAFDMYQDPEVAQIIRKLDERKREAVQKERYDYAKKLKQAIADLQKVGERLGRYEVEKRCAVEKEDYDLAKEKKQQMEQYRAEVYEQLELHSLLDAELMRRPFDLPLQPLARSGSPCHQKPMPSLPQLEERGTENQFAEPFLQEKPSSYSLTISPQHSAVDPLLPATDPHPKINAESLPYDERPLPAIRKHYGEAVVEPEMSNADISDARRGGMLGEPEPLTEKALREASSAIDVLGETLVAEAYCKTWSYREDALLALSKKLMEMPVGTPKEDLKNTLRASVFLVRRAIKDIVTSVFQASLKLLKMIITQYIPKHKLSKLETAHCVERTIPVLLTRTGDSSARLRVTAANFIQEMALFKEVKSLQIIPSYLVQPLKANSSVHLAMSQMGLLARLLKDLGTGSSGFTIDNVMKFSVSALEHRVYEVRETAVRIILDMYRQHQASILEYLPPDDSNTRRNILYKTIFEGFAKIDGRATDAEMRARRKAATEEAEKQKKEEIKALQGQLAALKEIQAEVQEKESDAVKPKNQDIQGGKAAPAEALGIPDEHYLDNLCIFCGERSESFTEEGLDLHYWKHCLMLTRCDHCKQVVEISSLTEHLLTECDKKDGFGKCYRCSEAVFKEELPRHIKHKDCNPAKPEKLANRCPLCHENFSPGEEAWKAHLMGPAGCTMNLRKTHILQKAPALQPGKSSAVAASGPLGSKAGSKIPTPKGGLSKSSSRTYAKR
notes: CEP104, human, full-length protein; Cloned into pTT5-C1-based expression vectors (vector: Addgene 52355); Dimer by single-molecule counting; also called GFP–CEP104; mCherry–CEP104; source: HEK293T, transiently transfected; purified (StrepTactin beads) for in vitro assays; in lysate for coimmunoprecipitation; not shown: GFP or mCherry, N-terminal, kept
Turning to B1, the binding result in data set [1] was “binds”. Further, the stoichiometry N (commonly a count of units in the complex or per binding partner) in data set [2] came to 2.

B2: ARMC9 (full length, GFP- or mCherry-tagged) (natural protein, human, UniProt Q7Z3E5 1-818, looked up)
chain: MGDILAHESELLGLVKEYLDFAEFEDTLKTFSKECKIKGKPLCKTVGGSFRDSKSLTIQKDLVAAFDNGDQKVFFDLWEEHISSSIRDGDSFAQKLEFYLHIHFAIYLLKYSVGRPDKEELDEKISYFKTYLETKGAALSQTTEFLPFYALPFVPNPMVHPSFKELFQDSWTPELKLKLIKFLALISKASNTPKLLTIYKENGQSNKEILQQLHQQLVEAERRSVTYLKRYNKIQADYHNLIGVTAELVDSLEATVSGKMITPEYLQSVCVRLFSNQMRQSLAHSVDFTRPGTASTMLRASLAPVKLKDVPLLPSLDYEKLKKDLILGSDRLKAFLLQALRWRLTTSHPGEQRETVLQAYISNDLLDCYSHNQRSVLQLLHSTSDVVRQYMARLINAFASLAEGRLYLAQNTKVLQMLEGRLKEEDKDIITRENVLGALQKFSLRRPLQTAMIQDGLIFWLVDVLKDPDCLSDYTLEYSVALLMNLCLRSTGKNMCAKVAGLVLKVLSDLLGHENHEIQPYVNGALYSILSVPSIREEARAMGMEDILRCFIKEGNAEMIRQIEFIIKQLNSEELPDGVLESDDDEDEDDEEDHDIMEADLDKDELIQPQLGELSGEKLLTTEYLGIMTNTGKTRRKGLANVQWSGDEPLQRPVTPGGHRNGYPVVEDQHTPPQTAQHARNGHPQALPAAHEAVYREGKPSTPESCVSSSSAIIAKPGEWLPRGRQEEPRPAPTGTPRQPREAPQDPGNGVTTRECASAFTCKPRAPCTPEMLDWNPPKAKASVLAPLFSSCGPQQASRPGSTASSTRGLPSSQSHRK
notes: ARMC9, human, full-length protein; Dimer by single-molecule counting; multimers by SEC; also called GFP–ARMC9; GFP-ARMC9 FL; source: HEK293T, transiently transfected; purified (StrepTactin beads) for in vitro assays; in lysate for coimmunoprecipitation; not shown: GFP or mCherry, N-terminal, kept
Turning to B2, the “rescue activity of TOGARAM1 on MTs in the presence of ARMC9” value in data set [3] was roughly 2 fold. Moreover, the “stoichiometry N” value in data set [2] worked out at 2.
